Data as given in article PMC5172458.

Substrate: O=c1ccn([C@H]2C[C@H](O)[C@@H](COP(=O)(O)O)O2)c(=O)[nH]1
Test: purified protein
Assay type: biochemical, Escherichia coli
Details: 25 °C, CH2H4folate fixed at 50 μM, TCEP

B1: ecTSase (Escherichia coli thymidylate synthase) (Escherichia coli K-12; H147V) (protein)
chain: MKQYLELMQKVLDEGTQKNDRTGTGTLSIFGHQMRFNLQDGFPLVTTKRCHLRSIIHELLWFLQGDTNIAYLHENNVTIWDEWADENGDLGPVYGKQWRAWPTPDGRHIDQITTVLNQLKNDPDSRRIIVSAWNVGELDKMALAPCVAFFQFYVADGKLSCQLYQRSCDVFLGLPFNIASYALLVHMMAQQCDLEVGDFVWTGGDTHLYSNHMDQTHLQLSREPRPLPKLIIKRKPESIFDYRFEDFEIEGYDPHPGIKAPVAI
B1 showed a Km of 4.0 ± 1.3 µM and a kcat of 0.61 ± 0.04 s⁻¹.
